The target in this data set is VDAC from Yeast (voltage dependent anion selective channel), purified (UniProt P04840).

As for “bovine cytochrome c oxidase holoenzyme (crystal grade)”, the KM (µM) at VDAC 50 nM was 28 µM, the KM (µM) at VDAC 100 nM was determined as 44 µM, the KM (µM) at VDAC 200 nM amounted to 59 µM and the VMAX (µM/min) at VDAC 50 nM came out at 132 µM/min. The substance also gave a VMAX (µM/min) at VDAC 100 nM of 199 µM/min, a VMAX (µM/min) at VDAC 200 nM of 224 µM/min, a VMAX/KM (1/min) at VDAC 50 nM of 4.7 min⁻¹ and a VMAX/KM (1/min) at VDAC 100 nM of 4.5 min⁻¹. The VMAX/KM (1/min) at VDAC 200 nM worked out at 3.8 min⁻¹.

These data come from patent publication US20090209433.
